Data published in patent publication US11912763 (dated 2024).
Values joined by “and” are separate entries in the source; they are usually repeats but may differ in a detail not shown here. Identical values can stand only once. Like-named read-outs stand apart in the source and are kept apart here. Each block holds one binder with its values, some of them ahead of it.

Assays:
mouse CLDN18.2 [1] = molecular target: T1, mouse CLDN18.2 (mouse, UniProt P56857); assay: ELISA
T1 chain: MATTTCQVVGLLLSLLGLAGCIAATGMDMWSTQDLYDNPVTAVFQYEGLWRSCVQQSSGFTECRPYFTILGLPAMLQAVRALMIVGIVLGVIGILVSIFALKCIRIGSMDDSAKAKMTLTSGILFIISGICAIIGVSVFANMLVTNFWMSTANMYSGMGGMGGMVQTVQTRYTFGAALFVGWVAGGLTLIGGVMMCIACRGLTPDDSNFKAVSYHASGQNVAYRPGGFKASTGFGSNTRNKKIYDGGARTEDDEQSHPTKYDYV

human CLDN18.2 [2] = molecular target: T2, human CLDN18.2 (human, UniProt P56856); assay: ELISA
human CLDN18.2 [3] = molecular target: T2, human CLDN18.2; assay: ELISA; remark: listed apart in the source
human CLDN18.2 [4] = molecular target: T2, human CLDN18.2; assay: ELISA; remark: listed apart in the source
human CLDN18.2 [5] = molecular target: T2, human CLDN18.2; assay: ELISA; remark: listed apart in the source
human CLDN18.2 [6] = molecular target: T2, human CLDN18.2; assay: ELISA; remark: listed apart in the source
human CLDN18.2 [7] = molecular target: T2, human CLDN18.2; assay: ELISA; remark: listed apart in the source
human CLDN18.2 [8] = molecular target: T2, human CLDN18.2; assay: ELISA; remark: listed apart in the source
human CLDN18.2 [9] = molecular target: T2, human CLDN18.2; assay: ELISA; remark: listed apart in the source
human CLDN18.2 [10] = molecular target: T2, human CLDN18.2; assay: ELISA; remark: listed apart in the source
human CLDN18.2 [11] = molecular target: T2, human CLDN18.2; assay: ELISA; remark: listed apart in the source
human CLDN18.2 [12] = molecular target: T2, human CLDN18.2; assay: ELISA; remark: listed apart in the source
human CLDN18.1 [13] = molecular target: T3, human CLDN18.1 (human, UniProt P56856); assay: ELISA
T3 chain: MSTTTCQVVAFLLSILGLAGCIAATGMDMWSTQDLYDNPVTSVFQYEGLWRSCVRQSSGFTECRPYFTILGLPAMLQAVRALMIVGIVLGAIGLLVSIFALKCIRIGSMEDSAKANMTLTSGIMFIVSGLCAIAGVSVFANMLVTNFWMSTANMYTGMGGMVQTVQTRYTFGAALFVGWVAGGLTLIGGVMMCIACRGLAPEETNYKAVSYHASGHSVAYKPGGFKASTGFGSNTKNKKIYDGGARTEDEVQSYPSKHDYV

human CLDN18.2 [14] = molecular target: T2, human CLDN18.2; assay: KinExA
human CLDN18.2 [15] = molecular target: T2, human CLDN18.2; assay: ELISA, after 14 days at 37C
human CLDN18.1 [16] = molecular target: T3, human CLDN18.1; assay: ELISA
human CLDN18.2 [17] = molecular target: T2, human CLDN18.2; assay: ELISA, serum 0 h
human CLDN18.2 [18] = molecular target: T2, human CLDN18.2; assay: ELISA, serum 24 h
human CLDN18.2 [19] = molecular target: T2, human CLDN18.2; assay: ELISA, serum 72 h
mouse CLDN18.2 [20] = molecular target: T1, mouse CLDN18.2; assay: ELISA

- EC50 (mouse CLDN18.2 [1]): 0.371 nM
- EC50 (human CLDN18.2 [2]): 0.51 nM
- EC50 (human CLDN18.2 [3]): 0.117 nM
- EC50 (human CLDN18.2 [4]): 0.164 nM
- EC50 (human CLDN18.2 [5]): 0.151 nM
- EC50 (human CLDN18.2 [6]): 0.208 nM
- EC50 (human CLDN18.2 [7]): 0.157 nM
- EC50 (human CLDN18.2 [8]): 0.36 nM and 0.69 nM
- EC50 (human CLDN18.2 [9]): 0.38 nM
- EC50 (human CLDN18.2 [10]): 0.69 nM
- EC50 (human CLDN18.2 [11]): 0.42 nM
- EC50 (human CLDN18.2 [12]): 0.2 nM
- binding result (human CLDN18.1 [13]): no binding
- Kd (human CLDN18.2 [14]): 0.0133 nM
B1: Ab10 (antibody)
chain 1: QVQLVQSGAEVKKPGSSVKVSCKASGYAFSNYLIEWVKQAPGQGLEWIGLINPGSGGTNYNEKFKGKATITADKSTSTAYMELSSLRSEDTAVYYCARVYYGNSFAYWGQGTLVTVSS
chain 2: DIVMTQSPDSLAVSLGERATISCKSSQSLLNSGNQKNYLTWYQQKPGQPPKLLIYWASTRESGVPDRFSGSGSGTDFTLTISSLQAEDVAVYYCQNDYFYPFTFGQGTKLEIK

- EC50 (human CLDN18.2 [5]): 0.366 nM
- EC50 (human CLDN18.2 [7]): 0.99 nM
- EC50 (human CLDN18.2 [15]): 10.1 nM
B4: LB321 CLDN18.2 arm (antibody)
chain 1: QVQLVQSGAEVKKPGSSVKVSCKASGYAFSNYLIEWVKQAPGQGLEWIGLINPGSGGTNYNEKFKGKATITADKSTSTAYMELSSLRSEDTAVYYCARVYYGNSFAYWGQGTLVTVSS
chain 2: DIVMTQSPDSLAVSLGERATISCKSSQSLLNSGNQKNYLTWYQQKPGQPPKLLIYWASTRESGVPDRFSGSGSGTDFTLTISSLQAEDVAVYYCQNDYFYPFTFGQGTKLEIK

- binding result (human CLDN18.1 [16]): no binding
- EC50 (human CLDN18.2 [12]): 0.219 nM
B6: Ab15 (antibody, V domains shown)
VH: QVQLVQSGAEVKKPGSSVKVSCKASGYAFSNYLIEWVKQAPGQGLEWIGLINPGSGGTNYNEKFKGKATITADKSTSTAYMELSSLRSEDTAVYYCARVYYGNSFAYWGQGTLVTVSS
VL: DIVMTQSPDSLAVSLGERATINCKSSQSLLNSGNNKNYLAWYQQKPGQPPKLLIYWASTRESGVPDRFSGSGSGTDFTLTISSLQAEDVAVYYCQNDYFYPFTFGQGTKLEIKR

- EC50 (human CLDN18.2 [3]): 0.227 nM
- binding result (human CLDN18.1 [13]): no binding
B10: Ab8 (antibody, V domains shown)
VH: QVQLVQSGAEVKKPGSSVKVSCKASGYAFSNYLIEWVKQAPGQGLEWIGLINPGSGGTNYNEKFKGKATLTADKSTSTAYMELSSLRSEDTAVYFCARVYYGNSFAYWGQGTLVTVSS
VL: DIVMTQSPDSLAVSLGERATISCKSSQSLLNSGNQKNYLTWYQQKPGQPPKLLIYWASTRESGVPDRFSGSGSGTDFTLTISSLQAEDVAVYYCQNDYFYPFTFGQGTKLEIKR

- EC50 (human CLDN18.2 [6]): 62.1 nM
- binding result (mouse CLDN18.2 [20]): no binding
B14: Ab35 (antibody, V domains shown)
VH: QVQLVQSGAEVKKPGSSVKVSCKASGYAFSNYLIEWVKQAPGQGLEWIGLINPGSGGTNYNEKFKGKATITADKSTSTAYMELSSLRSEDTAVYYCARVYYGNTFAYWGQGTLVTVSS
VL: DIVMTQSPDSLAVSLGERATISCKSSQSLLNTGNQKNYLTWYQQKPGQPPKLLIYWASTRESGVPDRFSGSGSGTDFTLTISSLQAEDVAVYYCQNDYFYPFTFGQGTKLEIK

Further lines, the binder ahead of its results:

B2: Ab36 (antibody, V domains shown)
VH: QVQLVQSGAEVKKPGSSVKVSCKASGYAFSNYLIEWVKQAPGQGLEWIGLINPGSGGTNYNEKFKGKATITADKSTSTAYMELSSLRSEDTAVYYCARVYYGNTFAYWGQGTLVTVSS
VL: DIVMTQSPDSLAVSLGERATISCKSSQSLLNTGNNKNYLAWYQQKPGQPPKLLIYWASTRESGVPDRFSGSGSGTDFTLTISSLQAEDVAVYYCQNDYFYPFTFGQGTKLEIK
- EC50 (mouse CLDN18.2 [1]): 0.518 nM
- EC50 (human CLDN18.2 [6]): 0.211 nM

B3: Ab7 (antibody, V domains shown)
VH: QVQLVQSGAEVKKPGSSVKVSCKASGYAFSNYLIEWVKQAPGQGLEWIGLINPGSGGTNYNEKFKGKATITADKSTSTAYMELSSLRSEDTAVYYCARVYYGNSFAYWGQGTLVTVSS
VL: DIVMTQSPDSLAVSLGERATISCKSSQSLLNSGNQKNYLTWYQQKPGQPPKLLIYWASTRESGVPDRFSGSGSGTHFTLTISSLQAEDVAVYYCQNDYFYPFTFGQGTKLEIKR
- EC50 (human CLDN18.2 [3]): 0.282 nM
- binding result (human CLDN18.1 [13]): no binding

B5: Ab6 (antibody, V domains shown)
VH: QVQLVQSGAEVKKPGSSVKVSCKASGYAFSNYLIEWVKQAPGQGLEWIGLINPGSGGTNYNEKFKGKATITADKSTSTAYMELSSLRSEDTAVYYCARVYYGNSFAYWGQGTLVTVSS
VL: DIVMTQSPDSLAVSLGERATISCKSSQSLLNSGNNKNYLAWYQQKPGQPPKLLIYWASTRESGVPDRFSGSGSGTDFTLTISSLQAEDVAVYYCQNDYFYPFTFGQGTKLEIK
- EC50 (mouse CLDN18.2 [1]): 0.594 nM
- EC50 (human CLDN18.2 [6]): 0.22 nM
- binding result (human CLDN18.1 [16]): no binding
- EC50 (human CLDN18.2 [12]): 0.222 nM

B7: ADC2 (antibody)
chain 1: QVQLVQSGAEVKKPGSSVKVSCKASGYAFSNYLIEWVKQAPGQGLEWIGLINPGSGGTNYNEKFKGKATITADKSTSTAYMELSSLRSEDTAVYYCARVYYGNSFAYWGQGTLVTVSS
chain 2: DIVMTQSPDSLAVSLGERATISCKSSQSLLNSGNQKNYLTWYQQKPGQPPKLLIYWASTRESGVPDRFSGSGSGTDFTLTISSLQAEDVAVYYCQNDYFYPFTFGQGTKLEIK
modifications: Ab10 MC-VC-PAB-MMAF conjugate
- EC50 (human CLDN18.2 [4]): 0.31 nM

B8: LB155 CLDN18.2 arm (antibody)
chain 1: QVQLVQSGAEVKKPGSSVKVSCKASGYAFSNYLIEWVKQAPGQGLEWIGLINPGSGGTNYNEKFKGKATITADKSTSTAYMELSSLRSEDTAVYYCARVYYGNSFAYWGQGTLVTVSS
chain 2: DIVMTQSPDSLAVSLGERATISCKSSQSLLNSGNQKNYLTWYQQKPGQPPKLLIYWASTRESGVPDRFSGSGSGTDFTLTISSLQAEDVAVYYCQNDYFYPFTFGQGTKLEIK
- EC50 (human CLDN18.2 [8]): 0.59 nM

B9: Ab9 (antibody, V domains shown)
VH: QVQLVQSGAEVKKPGSSVKVSCKASGYAFSNYLIEWVKQAPGQGLEWIGLINPGSGGTNYNEKFKGKATLTADKSTSTAYMELSSLRSEDTAVYFCARVYYGNSFAYWGQGTLVTVSS
VL: DIVMTQSPDSLAVSLGERATISCKSSQSLLNSGNQKNYLTWYQQKPGQPPKLLIYWASTRESGVPDRFSGSGSGTHFTLTISSLQAEDVAVYYCQNDYFYPFTFGQGTKLEIKR
- EC50 (human CLDN18.2 [3]): 0.339 nM
- binding result (human CLDN18.1 [13]): no binding

B11: ADC1 (antibody)
chain 1: QVQLVQSGAEVKKPGSSVKVSCKASGYAFSNYLIEWVKQAPGQGLEWIGLINPGSGGTNYNEKFKGKATITADKSTSTAYMELSSLRSEDTAVYYCARVYYGNSFAYWGQGTLVTVSS
chain 2: DIVMTQSPDSLAVSLGERATISCKSSQSLLNSGNQKNYLTWYQQKPGQPPKLLIYWASTRESGVPDRFSGSGSGTDFTLTISSLQAEDVAVYYCQNDYFYPFTFGQGTKLEIK
modifications: Ab10 SMCC-DM1 conjugate
- EC50 (human CLDN18.2 [4]): 0.344 nM

B12: LB432 CLDN18.2 arm (antibody)
chain 1: QVQLVQSGAEVKKPGSSVKVSCKASGYAFSNYLIEWVKQAPGQGLEWIGLINPGSGGTNYNEKFKGKATITADKSTSTAYMELSSLRSEDTAVYYCARVYYGNSFAYWGQGTLVTVSS
chain 2: DIVMTQSPDSLAVSLGERATISCKSSQSLLNSGNQKNYLTWYQQKPGQPPKLLIYWASTRESGVPDRFSGSGSGTDFTLTISSLQAEDVAVYYCQNDYFYPFTFGQGTKLEIK
- EC50 (human CLDN18.2 [9]): 0.74 nM
- EC50 (human CLDN18.2 [17]): 0.357 nM
- EC50 (human CLDN18.2 [18]): 0.535 nM
- EC50 (human CLDN18.2 [19]): 1.2 nM

B13: LB195 CLDN18.2 arm (antibody)
chain 1: QVQLVQSGAEVKKPGSSVKVSCKASGYAFSNYLIEWVKQAPGQGLEWIGLINPGSGGTNYNEKFKGKATITADKSTSTAYMELSSLRSEDTAVYYCARVYYGNSFAYWGQGTLVTVSS
chain 2: DIVMTQSPDSLAVSLGERATISCKSSQSLLNSGNQKNYLTWYQQKPGQPPKLLIYWASTRESGVPDRFSGSGSGTDFTLTISSLQAEDVAVYYCQNDYFYPFTFGQGTKLEIK
- EC50 (human CLDN18.2 [8]): 0.5 nM
